From paper PMC10557143, “Promoter R-Loops Recruit U2AF1 to Modulate Its Phase Separation and RNA Splicing”
Substitutions are numbered along the chain they refer to.

Legend:
[1] = biological target: T1, U2AF1 (human, UniProt Q01081 1-240); assay: fluorescence anisotropy; 100 mM K+; Anisotropy: 10 nM probe, 10 mM Tris-HCl pH 7.5, 1 mM EDTA, 100 mM KCl, 0.1 mM DTT, 10 ug/mL BSA, 30 min on ice; EMSA same but Tris pH 8.0, 6% native PAGE in 1x; details: protein: recombinant, tags: His6 (pET30a), label: 5' TAMRA
T1 sequence: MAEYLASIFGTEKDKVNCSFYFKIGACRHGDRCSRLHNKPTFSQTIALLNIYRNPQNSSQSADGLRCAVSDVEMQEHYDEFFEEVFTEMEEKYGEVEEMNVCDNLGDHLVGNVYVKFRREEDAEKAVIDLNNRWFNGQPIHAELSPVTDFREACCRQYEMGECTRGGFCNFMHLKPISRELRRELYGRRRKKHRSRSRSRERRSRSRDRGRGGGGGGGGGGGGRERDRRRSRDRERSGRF

[2] = biological target: T2, U2AF1-ZF2 (human, UniProt Q01081 149-176); assay: fluorescence anisotropy; Anisotropy: 10 nM probe, 10 mM Tris-HCl pH 7.5, 1 mM EDTA, 100 mM KCl, 0.1 mM DTT, 10 ug/mL BSA, 30 min on ice; EMSA same but Tris pH 8.0, 6% native PAGE in 1x; details: protein: recombinant; tags: His6 (pET30a); label: 5' TAMRA; parallel intramolecular G4
T2 chain: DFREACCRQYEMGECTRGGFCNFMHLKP

[3] = biological target: T1, U2AF1; assay: as above; details: protein: recombinant, tags: His6 (pET30a)

Binder: AAAGGGTTAGTGTTAGTGTTAGGGAA (ssDNA) [hTel_M4]
- Kd [1]: 60 ± 6 nM

Binder: TGAGGGTGGGGAGGGTGGGGAAGG (structured_DNA) [cMYC_G4]
- Kd ([1]; parallel intramolecular G4): 10.8 ± 0.9 nM
- binding signal [2]: > 10 fold lower affinity than full length

Binder: GGGTTAGGGTTAGGGTTAGGGT (structured_DNA) [2KF8_G4]
- Kd ([1]; antiparallel intramolecular G4): 9 ± 1 nM

Binder: GGGTTAGTGTTAGTGTTAGGGT (ssDNA) [2KF8_M4]
- Kd [1]: 10 ± 2 nM

Binder: TGAGGGTGAGGAGTGTGGGGAAGG (ssDNA) [cMYC_M4]
- Kd [1]: 22 ± 1 nM

Binder: AGGGAGGGCTCTGTGAGGAGGG (ssDNA) [cKIT_M4]
- Kd [1]: 19 ± 4 nM

B1: RNA/DNA hybrid (DNA:RNA)
?: GCGAGGGGCGGCCGGAGAGC
DNA: GCTCTCCGGCCGCCCCTCGC
- Kd ([3]; label: 5' Cy3 on RNA strand, blunt, strand 1 RNA, strand 2 DNA): 6.7 nM

Binder: AGGGAGGGCGCTGGGAGGAGGG (structured_DNA) [cKIT_G4]
- Kd ([1]; parallel intramolecular G4): 15 ± 2 nM

Binder: AAAGGGTTAGGGTTAGGGTTAGGGAA (structured_DNA) [hTel_G4]
- Kd ([1]; hybrid-type intramolecular G4): 50 ± 6 nM

B2: cMYC G4-R-loop (mixed)
?: GCGAGGGGCGGCCGGAGAGC
DNA 1: CCGCTCCGGCAGCTCAGGCCCTGGCGCTCTCCGGCCGCCCCTCGCCCGCCCGGGCTCCTCCTCCTGTGCC
DNA 2: GGCACAGGAGGAGGAGTTTTTTCTGAGGGTGGGGAGGGTGGGGAAGGCATTTTTTGAGCTGCCGGAGCGG
- Kd ([3]; label: 5' Cy3 on RNA strand, R-loop bubble: strand 1 RNA, strand 2 template DNA, strand 3 displaced DNA, some slow-migrating putative intermolecular G4): 3.5 nM

B3: cMYC M4-R-loop (mixed)
?: GCGAGGGGCGGCCGGAGAGC
DNA 1: B2 DNA 1
DNA 2: B2 DNA 2 with G32A, G37T
- Kd ([3]; label: 5' Cy3 on RNA strand, R-loop bubble: strand 1 RNA, strand 2 template DNA, strand 3 displaced DNA): 13 nM

Binder: UUUUAGGU (ssRNA) [U2AF1_RNA Motif (AG motif)]
- Kd ([3]; label: 5' Cy3): 350 nM
